Experimental data taken from paper doi:10.1101/2020.10.07.330233v1.
Residue numbers refer to the chain shown, from its start. In names and notes the source's numbering stands.

Substrate: O=[N+]([O-])c1ccc(O[C@@H]2O[C@H](CO)[C@@H](O)[C@H](O)[C@H]2O)cc1
Experiment: purified protein
Settings: 1 hour assay
[1] = average of two wild-type replicates (WT-1, WT-2)

B1: β-glucosidase B (BglB) (Paenibacillus polymyxa) (protein)
chain: MSENTFIFPATFMWGTSTSSYQIEGGTDEGGRTPSIWDTFCQIPGKVIGGDCGDVACDHFHHFKEDVQLMKQLGFLHYRFSVAWPRIMPAAGIINEEGLLFYEHLLDEIELAGLIPMLTLYHWDLPQWIEDEGGWTQRETIQHFKTYASVIMDRFGERINWWNTINEPYCASILGYGTGEHAPGHENWREAFTAAHHILMCHGIASNLHKEKGLTGKIGITLNMEHVDAASERPEDVAAAIRRDGFINRWFAEPLFNGKYPEDMVEWYGTYLNGLDFVQPGDMELIQQPGDFLGINYYTRSIIRSTNDASLLQVEQVHMEEPVTDMGWEIHPESFYKLLTRIEKDFSKGLPILITENGAAMRDELVNGQIEDTGRHGYIEEHLKACHRFIEEGGQLKGYFVWSFLDNFEWAWGYSKRFGIVHINYETQERTPKQSALWFKQMMAKNGF
Km [1]: 9.8 ± 2.2 mM | kcat [1]: 622.0 ± 45.8 min⁻¹

B2: β-glucosidase B (BglB) (Paenibacillus polymyxa; A360S) (protein)
chain: B1 chain with A360S
Km (technical triplicate): 12.7 ± 1.4 mM | kcat (technical triplicate): 92.8 ± 3.2 min⁻¹

B3: β-glucosidase B (BglB) (Paenibacillus polymyxa; I48K) (protein)
chain: B1 chain with I48K
Km (technical triplicate): 4.2 ± 0.1 mM | kcat (technical triplicate): 299.9 ± 2.4 min⁻¹

B4: β-glucosidase B (BglB) (Paenibacillus polymyxa; I23A) (protein)
chain: B1 chain with I23A
Km (technical triplicate): 17.1 ± 1.1 mM | kcat (technical triplicate): 92.7 ± 2.1 min⁻¹

B5: β-glucosidase B (BglB) (Paenibacillus polymyxa; I23V) (protein)
chain: B1 chain with I23V
Km (technical triplicate): 12.7 ± 0.53 mM | kcat (technical triplicate): 564.0 ± 7.5 min⁻¹
